# Assay results: patent US20160238596
# Tested on: Indicator molecule containing the cleavable sequence GPQGIFGQ with a terminal biotin group connected via a polyethylene glycol spacer/linker (intact)
# Active MMP-9 (Alere San Diego), sequence (chain, as listed by the source): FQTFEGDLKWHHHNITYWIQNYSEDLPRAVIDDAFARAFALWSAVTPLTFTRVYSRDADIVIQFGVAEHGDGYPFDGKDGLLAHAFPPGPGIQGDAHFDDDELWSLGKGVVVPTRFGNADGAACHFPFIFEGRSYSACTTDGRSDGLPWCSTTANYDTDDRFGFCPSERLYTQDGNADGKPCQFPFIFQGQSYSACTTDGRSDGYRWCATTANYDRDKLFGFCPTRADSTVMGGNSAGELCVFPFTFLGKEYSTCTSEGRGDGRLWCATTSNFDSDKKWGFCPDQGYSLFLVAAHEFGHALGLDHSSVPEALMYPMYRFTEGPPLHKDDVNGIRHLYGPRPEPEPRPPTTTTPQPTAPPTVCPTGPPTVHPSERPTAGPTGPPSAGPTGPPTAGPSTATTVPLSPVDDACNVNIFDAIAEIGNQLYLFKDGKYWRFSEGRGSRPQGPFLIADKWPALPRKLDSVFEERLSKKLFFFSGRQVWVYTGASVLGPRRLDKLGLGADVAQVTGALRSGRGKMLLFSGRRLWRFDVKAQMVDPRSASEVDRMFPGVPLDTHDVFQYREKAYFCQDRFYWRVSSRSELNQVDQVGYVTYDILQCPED
# MMP 9 (Enzo), sequence (chain, as listed by the source): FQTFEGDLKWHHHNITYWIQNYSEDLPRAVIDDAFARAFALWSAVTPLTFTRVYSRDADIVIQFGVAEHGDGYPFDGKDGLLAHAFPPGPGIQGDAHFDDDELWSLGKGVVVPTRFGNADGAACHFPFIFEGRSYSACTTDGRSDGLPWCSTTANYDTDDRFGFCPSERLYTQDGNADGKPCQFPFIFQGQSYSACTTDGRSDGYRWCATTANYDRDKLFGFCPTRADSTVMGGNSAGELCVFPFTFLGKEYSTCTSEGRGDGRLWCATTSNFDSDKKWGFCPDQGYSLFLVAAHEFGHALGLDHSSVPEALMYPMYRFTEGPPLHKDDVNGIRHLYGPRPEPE
# MMP 2 (Enzo), sequence (chain, as listed by the source): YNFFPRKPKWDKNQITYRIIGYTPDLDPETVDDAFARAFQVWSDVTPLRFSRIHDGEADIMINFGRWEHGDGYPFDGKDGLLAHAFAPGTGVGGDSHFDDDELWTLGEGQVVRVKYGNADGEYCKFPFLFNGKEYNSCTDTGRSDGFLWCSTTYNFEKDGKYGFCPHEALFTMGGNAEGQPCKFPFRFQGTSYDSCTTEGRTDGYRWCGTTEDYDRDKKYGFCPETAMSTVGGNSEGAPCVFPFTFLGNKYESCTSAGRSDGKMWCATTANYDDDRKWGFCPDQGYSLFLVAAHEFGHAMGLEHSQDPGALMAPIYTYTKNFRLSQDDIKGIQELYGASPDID
# MMP 3 (Enzo), sequence (chain, as listed by the source): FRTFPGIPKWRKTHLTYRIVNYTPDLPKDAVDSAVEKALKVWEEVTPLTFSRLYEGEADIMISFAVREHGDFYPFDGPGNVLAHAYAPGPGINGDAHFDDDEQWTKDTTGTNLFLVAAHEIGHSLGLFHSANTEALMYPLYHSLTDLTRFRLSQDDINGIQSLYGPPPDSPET
# MMP 8 (Enzo), sequence (chain, as listed by the source): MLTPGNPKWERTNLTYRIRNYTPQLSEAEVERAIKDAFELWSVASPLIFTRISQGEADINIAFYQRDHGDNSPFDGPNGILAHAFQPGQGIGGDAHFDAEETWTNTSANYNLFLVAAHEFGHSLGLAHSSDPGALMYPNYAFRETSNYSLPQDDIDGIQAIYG
# MMP 10 (Enzo), sequence (chain, as listed by the source): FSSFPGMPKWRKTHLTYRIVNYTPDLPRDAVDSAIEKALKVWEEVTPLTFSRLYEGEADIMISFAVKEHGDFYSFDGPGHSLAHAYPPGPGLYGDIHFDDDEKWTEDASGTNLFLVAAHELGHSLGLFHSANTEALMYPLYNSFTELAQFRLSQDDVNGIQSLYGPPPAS
substance,measurement,value
Active MMP-9 (Alere San Diego),OD405 (streptavidin plate ELISA with CF1522-AP) at 0.39 ng/ml MMP9,0.14 OD405
same,OD405 (streptavidin plate ELISA with CF1522-AP) at 0.78 ng/ml MMP9,0.14 OD405
same,OD405 (streptavidin plate ELISA with CF1522-AP) at 1.56 ng/ml MMP9,0.14 OD405
same,OD405 (streptavidin plate ELISA with CF1522-AP) at 3.13 ng/ml MMP9,0.13 OD405
same,OD405 (streptavidin plate ELISA with CF1522-AP) at 6.25 ng/ml MMP9,0.17 OD405
same,OD405 (streptavidin plate ELISA with CF1522-AP) at 12.50 ng/ml MMP9,0.18 OD405
same,OD405 (streptavidin plate ELISA with CF1522-AP) at 25.00 ng/ml MMP9,0.27 OD405
same,OD405 (streptavidin plate ELISA with CF1522-AP) at 50.00 ng/ml MMP9,0.5 OD405
same,"detectable limit for MMP-9 (lateral flow, sample volume of 75 µl)",approximately 4 ng/ml
same,"reader value (lateral flow, CF1522 gold) at 0.9765625 ng/ml MMP9",338 reader units
same,"reader value (lateral flow, CF1522 gold) at 1.953125 ng/ml MMP9",343 reader units
same,"reader value (lateral flow, CF1522 gold) at 3.90625 ng/ml MMP9",413 reader units
same,"reader value (lateral flow, CF1522 gold) at 7.8125 ng/ml MMP9",524 reader units
same,"reader value (lateral flow, CF1522 gold) at 15.625 ng/ml MMP9",882 reader units
same,"reader value (lateral flow, CF1522 gold) at 31.25 ng/ml MMP9",2030 reader units
same,"reader value (lateral flow, CF1522 gold) at 62.5 ng/ml MMP9",3830 reader units
same,"reader value (lateral flow, CF1522 gold) at 125 ng/ml MMP9",5580 reader units
same,"reader value (lateral flow, CF1522 gold) at 250 ng/ml MMP9",6220 reader units
same,"reader value (lateral flow, CF1522 gold) at 500 ng/ml MMP9",6730 reader units
same,"reader value (lateral flow, CF1522 gold) at 1000 ng/ml MMP9",6770 reader units
same,sensitivity of the MMP9 standard curves (ELISA and Lateral Flow),sensitivity down to 4 ng/ml
MMP 2 (Enzo),"Reader value (lateral flow, CF1522 gold) at 0.5 µg/ml MMP",1610 reader units
MMP 3 (Enzo),"Reader value (lateral flow, CF1522 gold) at 0.5 µg/ml MMP",336 reader units
MMP 8 (Enzo),"Reader value (lateral flow, CF1522 gold) at 0.5 µg/ml MMP",1140 reader units
MMP 9 (Enzo),"Reader value (lateral flow, CF1522 gold) at 0.5 µg/ml MMP",3840 reader units
MMP 10 (Enzo),"Reader value (lateral flow, CF1522 gold) at 0.5 µg/ml MMP",444 reader units
